Results reported in IntAct's records for PubMed 10398681.

B1: Protein TRANSPORT INHIBITOR RESPONSE 1 (Arabidopsis thaliana (Mouse-ear cress)), Q570C0 (parent)
chain: MQKRIALSFPEEVLEHVFSFIQLDKDRNSVSLVCKSWYEIERWCRRKVFIGNCYAVSPATVIRRFPKVRSVELKGKPHFADFNLVPDGWGGYVYPWIEAMSSSYTWLEEIRLKRMVVTDDCLELIAKSFKNFKVLVLSSCEGFSTDGLAAIAATCRNLKELDLRESDVDDVSGHWLSHFPDTYTSLVSLNISCLASEVSFSALERLVTRCPNLKSLKLNRAVPLEKLATLLQRAPQLEELGTGGYTAEVRPDVYSGLSVALSGCKELRCLSGFWDAVPAYLPAVYSVCSRLTTLNLSYATVQSYDLVKLLCQCPKLQRLWVLDYIEDAGLEVLASTCKDLRELRVFPSEPFVMEPNVALTEQGLVSVSMGCPKLESVLYFCRQMTNAALITIARNRPNMTRFRLCIIEPKAPDYLTLEPLDIGFGAIVEHCKDLRRLSLSGLLTDKVFEYIGTYAKKMEMLSVAFAGDSDLGMHHVLSGCDSLRKLEIRDCPFGDKALLANASKLETMRSLWMSSCSVSFGACKLLGQKMPKLNVEVIDERGAPDSRPESCPVERVFIYRTVAGPRFDMPGFVWNMDQDSTMRFSRQIITTNGL

Variants of: B1
Conditions: with skp1b_arath SKP1B

effect of a mutation on the interaction	Variant
decreasing interaction	MQKRIALSFAEEVLEHVFSFIQLDKDRNSVSLVCKSWYEIERWCRRKVFIGNCYAVSPATVIRRFPKVRSVELKGKPHFADFNLVPDGWGGYVYPWIEAMSSSYTWLEEIRLKRMVVTDDCLELIAKSFKNFKVLVLSSCEGFSTDGLAAIAATCRNLKELDLRESDVDDVSGHWLSHFPDTYTSLVSLNISCLASEVSFSALERLVTRCPNLKSLKLNRAVPLEKLATLLQRAPQLEELGTGGYTAEVRPDVYSGLSVALSGCKELRCLSGFWDAVPAYLPAVYSVCSRLTTLNLSYATVQSYDLVKLLCQCPKLQRLWVLDYIEDAGLEVLASTCKDLRELRVFPSEPFVMEPNVALTEQGLVSVSMGCPKLESVLYFCRQMTNAALITIARNRPNMTRFRLCIIEPKAPDYLTLEPLDIGFGAIVEHCKDLRRLSLSGLLTDKVFEYIGTYAKKMEMLSVAFAGDSDLGMHHVLSGCDSLRKLEIRDCPFGDKALLANASKLETMRSLWMSSCSVSFGACKLLGQKMPKLNVEVIDERGAPDSRPESCPVERVFIYRTVAGPRFDMPGFVWNMDQDSTMRFSRQIITTNGL [P10A]
